According to patent publication US20020081293A1:

Assays:
[1] = biological target: human factor D purified from human serum (human) (UniProt P00746); assay: SPR (BIAcore), factor D amine-coupled to the chip, MAb 166-32 as analyte
[2] = biological target: dog factor D (in serum) (dog); assay: cell-based or functional assay; details: scale: times less effective than on human factor D
[3] = biological target: human factor D purified from human serum (human) (UniProt P00746); assay: cell-based or functional assay
[4] = biological target: human factor D purified from human serum (human) (UniProt P00746); assay: SPR (BIAcore), MAb captured by rabbit anti-mouse IgG, factor D as analyte

UniProt P00746, sequence (P00746 26-253): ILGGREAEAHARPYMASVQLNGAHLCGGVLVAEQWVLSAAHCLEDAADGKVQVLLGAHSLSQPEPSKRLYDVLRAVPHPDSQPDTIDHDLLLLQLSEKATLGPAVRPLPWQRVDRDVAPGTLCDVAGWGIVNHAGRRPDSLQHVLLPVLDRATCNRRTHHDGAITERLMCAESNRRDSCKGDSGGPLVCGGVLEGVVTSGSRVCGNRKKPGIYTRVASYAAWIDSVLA

Kd [1]: 0.16 nM | koff [1]: 7.6e-05 s⁻¹ | kon [1]: 460000 M⁻¹ s⁻¹ | molar ratio for complete inhibition of alternative complement activity in extracorporeal circuit plasma (18 µg/ml MAb) (molar ratio (MAb : factor D)) [3]: 1.5 | Kd [4]: < 0.1 nM | koff [4]: 0.00011 s⁻¹ | kon [4]: > 1e+06 M⁻¹ s⁻¹
Substance: monoclonal antibody 166-32
neutralization of dog factor D in hemolytic assays, against human factor D [2]: 10 | inhibition of factor D dependent hemolysis of unsensitized rabbit RBCs (factor D depleted human serum with 0.1 µg/ml supplemented factor D) [3]: 0.3 µg/mL | molar ratio for inhibition of factor D dependent hemolysis (molar ratio (MAb 166-32 to factor D)) [3]: 0.5
